{
  "source": "paper PMC7402283",
  "about": "“Characterizing the Fused TvG6PD::6PGL Protein from the Protozoan Trichomonas vaginalis, and Effects of the NADP^+ Molecule on Enzyme Stability” (International Journal of Molecular Sciences, 2020)",
  "key": {"TvG6PD::6PGL": {"molecular_target": "T1, TvG6PD::6PGL (Trichomonas vaginalis, UniProt A2EC78)", "T1 construct": "gene TVAG_414060; full-length fused protein, 716 aa, G6PD N-terminal (1-483) and 6PGL C-terminal, 81,692 Da; pET3a-HisTEV, N-terminal His6 tag removed by TEV protease; E. coli BL21(DE3) zwf-deleted; native tetramer", "T1 sequence (A2EC78 1-716)": "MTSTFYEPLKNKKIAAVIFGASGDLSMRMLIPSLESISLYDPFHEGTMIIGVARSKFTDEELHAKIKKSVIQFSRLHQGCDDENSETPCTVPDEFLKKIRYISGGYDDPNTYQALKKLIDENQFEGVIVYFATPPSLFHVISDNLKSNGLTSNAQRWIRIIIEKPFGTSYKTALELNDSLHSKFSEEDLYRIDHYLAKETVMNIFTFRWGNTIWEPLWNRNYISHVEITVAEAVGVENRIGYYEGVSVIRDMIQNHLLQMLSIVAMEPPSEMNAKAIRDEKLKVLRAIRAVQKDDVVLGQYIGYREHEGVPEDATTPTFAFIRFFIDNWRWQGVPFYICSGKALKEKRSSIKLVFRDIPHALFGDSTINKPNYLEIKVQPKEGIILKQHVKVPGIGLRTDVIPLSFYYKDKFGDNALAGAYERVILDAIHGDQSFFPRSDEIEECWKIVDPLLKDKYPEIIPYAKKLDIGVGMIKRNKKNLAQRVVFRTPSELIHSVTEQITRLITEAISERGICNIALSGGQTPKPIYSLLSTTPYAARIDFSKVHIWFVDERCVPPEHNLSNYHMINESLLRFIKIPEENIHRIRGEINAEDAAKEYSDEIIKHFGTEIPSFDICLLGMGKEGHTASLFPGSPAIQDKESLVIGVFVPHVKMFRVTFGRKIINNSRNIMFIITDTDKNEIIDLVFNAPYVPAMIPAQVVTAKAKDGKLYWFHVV", "experiment": "intrinsic tryptophan fluorescence quenching titration, excitation […] nm", "type": "binding"}, "[1]": {"molecular_target": "fused glucose-6-phosphate dehydrogenase-phosphogluconolactonase protein from Trichomonas vaginalis (TvG6PD::6PGL) (Trichomonas vaginalis)", "experiment": "SEC; Sephacryl 400 (16/60) gel filtration column, 50 mM phosphate buffer pH 7.35, flow 0.3 mL/min, calibrated with Bio-Rad gel filtration standards; single peak at 59.9 mL; no monomer, dimer or larger aggregates seen"}, "purified protein [2]": {"substrate": "NC(=O)c1ccc[n+]([C@@H]2O[C@H](COP(=O)(O)OP(=O)(O)OC[C@H]3O[C@@H](n4cnc5c(N)ncnc54)[C@H](OP(=O)(O)O)[C@@H]3O)[C@@H](O)[C@H]2O)c1", "experiment": "purified protein", "type": "biochemical, Trichomonas vaginalis", "settings": "G6P fixed at 1 mM, pH 8.0, apparent Km, catalytic site"}, "purified protein [3]": {"substrate": "O=P(O)(O)OC[C@H]1OC(O)[C@H](O)[C@@H](O)[C@@H]1O", "experiment": "purified protein", "type": "biochemical, Trichomonas vaginalis", "settings": "NADP+ fixed at 150 uM, pH 8.0, apparent Km"}},
  "data": [
    {"molecule": "NC(=O)c1ccc[n+]([C@@H]2O[C@H](COP(=O)(O)OP(=O)(O)OC[C@H]3O[C@@H](n4cnc5c(N)ncnc54)[C@H](OP(=O)(O)O)[C@@H]3O)[C@@H](O)[C@H]2O)c1", "note": "[NADP^+]", "values": [
      {"measurement": "Kd", "setting": "TvG6PD::6PGL", "result": 31, "unit": "nM"}
    ]},
    {"molecule": "fused glucose-6-phosphate dehydrogenase-phosphogluconolactonase protein from Trichomonas vaginalis (TvG6PD::6PGL) (enzyme)", "values": [
      {"measurement": "stoichiometry N", "setting": "[1]", "result": 4}
    ]},
    {"molecule": "TvG6PD::6PGL (Trichomonas vaginalis G3) (protein, full-length fused protein, 716 aa, G6PD N-terminal (1-483) and 6PGL C-terminal, 81,692 Da; pET3a-HisTEV, N-terminal His6 tag removed by TEV protease; E. coli BL21(DE3) zwf-deleted; native tetramer) MTSTFYEPLKNKKIAAVIFGASGDLSMRMLIPSLESISLYDPFHEGTMIIGVARSKFTDEELHAKIKKSVIQFSRLHQGCDDENSETPCTVPDEFLKKIRYISGGYDDPNTYQALKKLIDENQFEGVIVYFATPPSLFHVISDNLKSNGLTSNAQRWIRIIIEKPFGTSYKTALELNDSLHSKFSEEDLYRIDHYLAKETVMNIFTFRWGNTIWEPLWNRNYISHVEITVAEAVGVENRIGYYEGVSVIRDMIQNHLLQMLSIVAMEPPSEMNAKAIRDEKLKVLRAIRAVQKDDVVLGQYIGYREHEGVPEDATTPTFAFIRFFIDNWRWQGVPFYICSGKALKEKRSSIKLVFRDIPHALFGDSTINKPNYLEIKVQPKEGIILKQHVKVPGIGLRTDVIPLSFYYKDKFGDNALAGAYERVILDAIHGDQSFFPRSDEIEECWKIVDPLLKDKYPEIIPYAKKLDIGVGMIKRNKKNLAQRVVFRTPSELIHSVTEQITRLITEAISERGICNIALSGGQTPKPIYSLLSTTPYAARIDFSKVHIWFVDERCVPPEHNLSNYHMINESLLRFIKIPEENIHRIRGEINAEDAAKEYSDEIIKHFGTEIPSFDICLLGMGKEGHTASLFPGSPAIQDKESLVIGVFVPHVKMFRVTFGRKIINNSRNIMFIITDTDKNEIIDLVFNAPYVPAMIPAQVVTAKAKDGKLYWFHVV", "values": [
      {"measurement": "Km", "setting": "purified protein [2]", "result": 27, "unit": "µM"},
      {"measurement": "kcat", "setting": "purified protein [2]", "result": 147, "unit": "s⁻¹"},
      {"measurement": "Km", "setting": "purified protein [3]", "result": 210, "unit": "µM"},
      {"measurement": "kcat", "setting": "purified protein [3]", "result": 147, "unit": "s⁻¹"}
    ]}
  ]
}
